Test results from PMC11966256.

What was measured:
[1] = target: HsLARP6(84-183) La domain (Homo sapiens, UniProt Q9BRS8); assay: analytical SEC
[2] = target: HsLARP6(73-183) La domain (Homo sapiens, UniProt Q9BRS8); assay: analytical SEC
[3] = target: Cy5-HsLARP6(73-183)G74C La domain (Homo sapiens, UniProt Q9BRS8, G74C); assay: MST

Binder: GGCACAAGGAGUCUGCAUGUCUAAGUGCUAGACAUGCUCAGCUUUGUG (structured_RNA) [5'SL RNA (a2(I)), 48 nt]
- binding result [1]: binds
- binding result [2]: binds
- Kd [3]: 4.87 ± 0.15 nM
